One experiment concerns the target T1, human GLP-1 receptor (human, UniProt P43220 24-463).
T1 construct: whole, on cells; Assayed as crude membranes of stably transfected HEK293 cells; also called hGLP1R; hGLP-1R
Put plainly: SPA, displacement of [125I]-GLP-1 from hGLP-1R membranes, 0.1% bacitracin. Summed up: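 Binding buffer: 25 mM HEPES pH 7.4, 2.5 mM CaCl₂, 1 mM MgCl₂, 0.1% bacitracin, 0.003% Tween-20, protease inhibitors without EDTA. Four-parameter nonlinear regression; Kᵢ given as geometric mean ± SEM, n = independent replicates run on different days.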
Background: Loss of bound radioactivity is the signal in a displacement assay; it reports binding, not function.

Experiment [1] has as its target T2, human glucose-dependent insulinotropic polypeptide (GIP) receptor (human, UniProt P48546 22-466).
T2 construct: whole, on cells; Assayed as crude membranes of stably transfected CHO cells; also called hGIPR; human GIP receptor
T2 sequence (looked up): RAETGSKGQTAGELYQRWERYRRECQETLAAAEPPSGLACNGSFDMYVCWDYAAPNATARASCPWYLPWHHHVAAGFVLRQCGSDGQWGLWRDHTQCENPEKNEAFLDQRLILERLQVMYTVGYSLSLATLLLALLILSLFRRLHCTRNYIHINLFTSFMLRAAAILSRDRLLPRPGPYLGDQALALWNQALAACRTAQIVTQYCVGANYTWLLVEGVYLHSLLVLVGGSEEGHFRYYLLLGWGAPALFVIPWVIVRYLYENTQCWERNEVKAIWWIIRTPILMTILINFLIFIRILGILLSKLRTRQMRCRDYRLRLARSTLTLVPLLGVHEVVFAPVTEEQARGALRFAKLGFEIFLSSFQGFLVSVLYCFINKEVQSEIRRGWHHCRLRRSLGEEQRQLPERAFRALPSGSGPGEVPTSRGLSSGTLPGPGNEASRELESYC
Nature of the experiment: SPA, displacement of [125I]-GIP from hGIPR membranes, 0.1% bacitracin.

For the next experiment, the target named is T3, human glucagon receptor (human, UniProt P47871 26-477).
T3 construct: whole, on cells; Assayed as crude membranes of stably transfected HEK293 cells; also called hGcgR; GcgR
T3 sequence (P47871 26-477): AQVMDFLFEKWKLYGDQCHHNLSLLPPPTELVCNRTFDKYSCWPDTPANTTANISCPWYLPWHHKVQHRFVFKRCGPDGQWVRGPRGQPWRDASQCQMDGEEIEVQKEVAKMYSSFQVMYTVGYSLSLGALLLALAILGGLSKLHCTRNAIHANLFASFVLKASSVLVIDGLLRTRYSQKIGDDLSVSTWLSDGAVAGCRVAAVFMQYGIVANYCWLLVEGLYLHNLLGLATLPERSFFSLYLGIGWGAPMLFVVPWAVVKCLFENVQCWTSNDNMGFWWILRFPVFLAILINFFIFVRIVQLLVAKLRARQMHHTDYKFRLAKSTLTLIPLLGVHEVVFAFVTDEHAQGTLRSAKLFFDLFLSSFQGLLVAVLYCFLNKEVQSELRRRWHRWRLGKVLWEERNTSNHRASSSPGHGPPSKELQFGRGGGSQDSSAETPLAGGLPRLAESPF
Put plainly: SPA, displacement of [125I]-Gcg from hGcgR membranes, 0.1% bacitracin. Summed up:
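Binding buffer: 25 mM HEPES pH 7.4, 2.5 mM CaCl₂, 1 mM MgCl₂, 0.003% Tween-20, protease inhibitors without EDTA. Counted by scintillation after 12 h incubation/settling at room temperature. Four-parameter nonlinear fit; Kᵢ given as geometric mean ± SEM of independent replicates run on different days.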

The record followed here is patent US20210032299A1 (Eli Lilly, published 2021).

Starred links: 1 amine or outer side, 2 acyl side, 3 side chain; linkers in the order of their positions; H or OH if unused. Non-standard residues stand in square brackets, D forms with d. Groups on a side chain read outwards from the residue. No end group written: not given here. *: point of attachment. C20 diacid = O=C(O)CCCCCCCCCCCCCCCCCCC(=O)*; αMePhe(2-F) = C[C@](N)(Cc1ccccc1F)C(=O)O; γGlu = O=C(O)[C@H](CCC(=O)[*:2])N[*:1]; 4Pal = N[C@@H](Cc1ccncc1)C(=O)O; AEEA = NCCOCCOCC(=O)O; Aib = CC(C)(N)C(=O)O

By Ki is commonly meant the dissociation constant of the complex between target and ligand, obtained from inhibition or displacement. Low readings indicate a stronger hold on the target, high ones a looser hold on the target.

B1: Example 11 (peptide)
peptide: Y[dA]EGTFISDYSILLDKK([AEEA-AEEA-γGlu-C20 diacid])AQQDFVNWLLAQGPSSGAPPPS-NH2
modifications: N-terminus assumed
SMILES: CC[C@H](C)[C@H](NC(=O)[C@H](CO)NC(=O)[C@H](Cc1ccc(O)cc1)NC(=O)[C@H](CC(=O)O)NC(=O)[C@H](CO)NC(=O)[C@@H](NC(=O)[C@H](Cc1ccccc1)NC(=O)[C@@H](NC(=O)CNC(=O)[C@H](CCC(=O)O)NC(=O)[C@@H](C)NC(=O)[C@@H](N)Cc1ccc(O)cc1)[C@@H](C)O)[C@@H](C)CC)C(=O)N[C@@H](CC(C)C)C(=O)N[C@@H](CC(C)C)C(=O)N[C@@H](CC(=O)O)C(=O)N[C@@H](CCCCN)C(=O)N[C@@H](CCCCNC(=O)COCCOCCNC(=O)COCCOCCNC(=O)CC[C@H](NC(=O)CCCCCCCCCCCCCCCCCCC(=O)O)C(=O)O)C(=O)N[C@@H](C)C(=O)N[C@@H](CCC(N)=O)C(=O)N[C@@H](CCC(N)=O)C(=O)N[C@@H](CC(=O)O)C(=O)N[C@@H](Cc1ccccc1)C(=O)N[C@H](C(=O)N[C@@H](CC(N)=O)C(=O)N[C@@H](Cc1c[nH]c2ccccc12)C(=O)N[C@@H](CC(C)C)C(=O)N[C@@H](CC(C)C)C(=O)N[C@@H](C)C(=O)N[C@@H](CCC(N)=O)C(=O)NCC(=O)N1CCC[C@H]1C(=O)N[C@@H](CO)C(=O)N[C@@H](CO)C(=O)NCC(=O)N[C@@H](C)C(=O)N1CCC[C@H]1C(=O)N1CCC[C@H]1C(=O)N1CCC[C@H]1C(=O)N[C@@H](CO)C(N)=O)C(C)C
Consider B1, for which the figures for the Ki (with human GLP-1 receptor; in experiment [1]; with human glucagon receptor) were 85.9 nM, 0.0584 nM and 163 nM, respectively.

B2: Example 12 (peptide)
peptide: Y[dA]EGTFISDYSILLDKK([AEEA-AEEA-γGlu-C20 diacid])AQQDFVNWLLAGGPSSGAPPPS-NH2
modifications: N-terminus assumed
SMILES: CC[C@H](C)[C@H](NC(=O)[C@H](CO)NC(=O)[C@H](Cc1ccc(O)cc1)NC(=O)[C@H](CC(=O)O)NC(=O)[C@H](CO)NC(=O)[C@@H](NC(=O)[C@H](Cc1ccccc1)NC(=O)[C@@H](NC(=O)CNC(=O)[C@H](CCC(=O)O)NC(=O)[C@@H](C)NC(=O)[C@@H](N)Cc1ccc(O)cc1)[C@@H](C)O)[C@@H](C)CC)C(=O)N[C@@H](CC(C)C)C(=O)N[C@@H](CC(C)C)C(=O)N[C@@H](CC(=O)O)C(=O)N[C@@H](CCCCN)C(=O)N[C@@H](CCCCNC(=O)COCCOCCNC(=O)COCCOCCNC(=O)CC[C@H](NC(=O)CCCCCCCCCCCCCCCCCCC(=O)O)C(=O)O)C(=O)N[C@@H](C)C(=O)N[C@@H](CCC(N)=O)C(=O)N[C@@H](CCC(N)=O)C(=O)N[C@@H](CC(=O)O)C(=O)N[C@@H](Cc1ccccc1)C(=O)N[C@H](C(=O)N[C@@H](CC(N)=O)C(=O)N[C@@H](Cc1c[nH]c2ccccc12)C(=O)N[C@@H](CC(C)C)C(=O)N[C@@H](CC(C)C)C(=O)N[C@@H](C)C(=O)NCC(=O)NCC(=O)N1CCC[C@H]1C(=O)N[C@@H](CO)C(=O)N[C@@H](CO)C(=O)NCC(=O)N[C@@H](C)C(=O)N1CCC[C@H]1C(=O)N1CCC[C@H]1C(=O)N1CCC[C@H]1C(=O)N[C@@H](CO)C(N)=O)C(C)C
B2: the Ki with human GLP-1 receptor stood at 46.8 nM; in experiment [1] it was 0.0876 nM; with human glucagon receptor, 134 nM.

B3: Example 8 (peptide)
peptide: Y[Aib]EGTFISDYSILLDKK([AEEA-AEEA-γGlu-C20 diacid])AQ[Aib]DFVNWLLAQGPSSGAPPPS-NH2
modifications: N-terminus assumed
SMILES: CC[C@H](C)[C@H](NC(=O)[C@H](CO)NC(=O)[C@H](Cc1ccc(O)cc1)NC(=O)[C@H](CC(=O)O)NC(=O)[C@H](CO)NC(=O)[C@@H](NC(=O)[C@H](Cc1ccccc1)NC(=O)[C@@H](NC(=O)CNC(=O)[C@H](CCC(=O)O)NC(=O)C(C)(C)NC(=O)[C@@H](N)Cc1ccc(O)cc1)[C@@H](C)O)[C@@H](C)CC)C(=O)N[C@@H](CC(C)C)C(=O)N[C@@H](CC(C)C)C(=O)N[C@@H](CC(=O)O)C(=O)N[C@@H](CCCCN)C(=O)N[C@@H](CCCCNC(=O)COCCOCCNC(=O)COCCOCCNC(=O)CC[C@H](NC(=O)CCCCCCCCCCCCCCCCCCC(=O)O)C(=O)O)C(=O)N[C@@H](C)C(=O)N[C@@H](CCC(N)=O)C(=O)NC(C)(C)C(=O)N[C@@H](CC(=O)O)C(=O)N[C@@H](Cc1ccccc1)C(=O)N[C@H](C(=O)N[C@@H](CC(N)=O)C(=O)N[C@@H](Cc1c[nH]c2ccccc12)C(=O)N[C@@H](CC(C)C)C(=O)N[C@@H](CC(C)C)C(=O)N[C@@H](C)C(=O)N[C@@H](CCC(N)=O)C(=O)NCC(=O)N1CCC[C@H]1C(=O)N[C@@H](CO)C(=O)N[C@@H](CO)C(=O)NCC(=O)N[C@@H](C)C(=O)N1CCC[C@H]1C(=O)N1CCC[C@H]1C(=O)N1CCC[C@H]1C(=O)N[C@@H](CO)C(N)=O)C(C)C
Take B3: the Ki with human GLP-1 receptor amounted to 38.1 nM; in experiment [1] it was 0.027 nM; with human glucagon receptor it was 101 nM.

B4: Example 39 (peptide)
peptide: Y[Aib]EGT[αMePhe(2-F)]ISDYSIALDKK([AEEA-AEEA-γGlu-C20 diacid])HQ[Aib]DFVE[4Pal]LLEGGPSSGAPPPS-NH2
modifications: N-terminus assumed
SMILES: CC[C@H](C)[C@H](NC(=O)[C@H](CO)NC(=O)[C@H](Cc1ccc(O)cc1)NC(=O)[C@H](CC(=O)O)NC(=O)[C@H](CO)NC(=O)[C@@H](NC(=O)[C@](C)(Cc1ccccc1F)NC(=O)[C@@H](NC(=O)CNC(=O)[C@H](CCC(=O)O)NC(=O)C(C)(C)NC(=O)[C@@H](N)Cc1ccc(O)cc1)[C@@H](C)O)[C@@H](C)CC)C(=O)N[C@@H](C)C(=O)N[C@@H](CC(C)C)C(=O)N[C@@H](CC(=O)O)C(=O)N[C@@H](CCCCN)C(=O)N[C@@H](CCCCNC(=O)COCCOCCNC(=O)COCCOCCNC(=O)CC[C@H](NC(=O)CCCCCCCCCCCCCCCCCCC(=O)O)C(=O)O)C(=O)N[C@@H](Cc1c[nH]cn1)C(=O)N[C@@H](CCC(N)=O)C(=O)NC(C)(C)C(=O)N[C@@H](CC(=O)O)C(=O)N[C@@H](Cc1ccccc1)C(=O)N[C@H](C(=O)N[C@@H](CCC(=O)O)C(=O)N[C@@H](Cc1ccncc1)C(=O)N[C@@H](CC(C)C)C(=O)N[C@@H](CC(C)C)C(=O)N[C@@H](CCC(=O)O)C(=O)NCC(=O)NCC(=O)N1CCC[C@H]1C(=O)N[C@@H](CO)C(=O)N[C@@H](CO)C(=O)NCC(=O)N[C@@H](C)C(=O)N1CCC[C@H]1C(=O)N1CCC[C@H]1C(=O)N1CCC[C@H]1C(=O)N[C@@H](CO)C(N)=O)C(C)C
For the molecule B4, the Ki with human GLP-1 receptor was found to be 235 nM; in experiment [1], 0.0444 nM; with human glucagon receptor, 76 nM.

B5: Example 18 (peptide)
peptide: YXEGTFISDYSILLDKKAQXDFVNXLLAQGPSSGAPPPS
modifications: D-Ala2; K17((2-[2-(2-Amino-ethoxy)-ethoxy]-acetyl)2-(γ-Glu)-CO-(CH2)16-CO2H); Aib20; 4-Pal25; C-terminal amide
As for B5, the Ki with human GLP-1 receptor stood at 158 nM; in experiment [1], 0.0331 nM; with human glucagon receptor it was 463 nM.
